Measured values: publication PMC12552936, “Protein inhibitor of retinal membrane guanylyl cyclase suppresses cGMP synthesis in photoreceptors” (The Journal of Biological Chemistry, 2025)

Key:
[1] = target: mOrange-tagged RetGC1 (retinal membrane guanylyl cyclase 1) (human) (UniProt Q02846)
[2] = target: T1, mOrange-tagged RetGC1 (retinal membrane guanylyl cyclase 1) (human, UniProt Q02846 52-1103); experiment: cell-based or functional assay
T1 sequence (looked up): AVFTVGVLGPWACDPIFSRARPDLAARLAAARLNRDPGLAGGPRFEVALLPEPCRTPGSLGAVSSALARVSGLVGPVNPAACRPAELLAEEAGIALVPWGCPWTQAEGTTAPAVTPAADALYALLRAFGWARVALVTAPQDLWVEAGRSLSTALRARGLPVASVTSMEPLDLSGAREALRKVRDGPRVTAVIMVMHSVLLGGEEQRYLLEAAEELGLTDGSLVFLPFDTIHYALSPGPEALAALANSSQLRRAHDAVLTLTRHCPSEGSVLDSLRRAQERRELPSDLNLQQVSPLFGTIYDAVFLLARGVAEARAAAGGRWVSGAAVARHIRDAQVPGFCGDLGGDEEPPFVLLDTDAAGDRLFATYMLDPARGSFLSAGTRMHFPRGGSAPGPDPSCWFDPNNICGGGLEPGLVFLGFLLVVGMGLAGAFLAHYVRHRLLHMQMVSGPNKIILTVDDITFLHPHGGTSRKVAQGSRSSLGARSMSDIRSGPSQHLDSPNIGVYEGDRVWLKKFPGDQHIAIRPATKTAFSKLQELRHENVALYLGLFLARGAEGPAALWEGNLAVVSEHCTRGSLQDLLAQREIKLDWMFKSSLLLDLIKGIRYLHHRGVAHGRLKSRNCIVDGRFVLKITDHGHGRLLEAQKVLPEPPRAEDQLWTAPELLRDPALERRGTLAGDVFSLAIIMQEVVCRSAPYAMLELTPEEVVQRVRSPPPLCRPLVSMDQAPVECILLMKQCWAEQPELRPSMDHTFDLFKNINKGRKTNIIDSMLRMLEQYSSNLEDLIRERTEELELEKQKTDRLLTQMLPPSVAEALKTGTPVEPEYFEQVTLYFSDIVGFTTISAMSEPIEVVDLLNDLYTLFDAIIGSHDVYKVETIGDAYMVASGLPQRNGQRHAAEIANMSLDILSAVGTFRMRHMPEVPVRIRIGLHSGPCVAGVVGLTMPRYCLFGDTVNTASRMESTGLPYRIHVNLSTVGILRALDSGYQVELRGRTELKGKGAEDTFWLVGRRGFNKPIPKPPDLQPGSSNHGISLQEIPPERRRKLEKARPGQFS

[3] = target: native RetGC of the mouse retina (endogenous RetGC in retinal homogenates and isolated rod outer segments)

M26R/L176F GCAP1 (from UniProt P46065 1-205) (natural protein)
inhibition of the activity of recombinant RetGC1 in HEK293 membranes reconstituted with 1 μM GCAP1 (blocked pair: RetGC1:GCAP1), 2 mM EGTA, 10 mM MgCl2; IC50 [1]: 300 nM

B1: M26R GCAP1 (natural protein)
chain: MGNIMDGKSVEELSSTECHQWYKKFRTECPSGQLTLYEFRQFFGLKNLSPWASQYVEQMFETFDFNKDGYIDFMEYVAALSLVLKGKVEQKLRWYFKLYDVDGNGCIDRDELLTIIRAIRAINPCSDSTMTAEEFTDTVFSKIDVNGDGELSLEEFMEGVQKDQMLLDTLTRSLDLTRIVRRLQNGEQDEEGASGRETEAAEADG
modifications: N-terminal myristoyl
inhibition of the activity of recombinant RetGC1 in HEK293 membranes reconstituted with 1 μM GCAP1 (blocked pair: RetGC1:GCAP1), 2 mM EGTA, 10 mM MgCl2; IC50 [1]: 640 nM

B2: GCAP1-GFP (wildtype GCAP1 tagged with GFP) (natural protein, bovine, UniProt P46065 1-205, looked up)
chain: MGNIMDGKSVEELSSTECHQWYKKFMTECPSGQLTLYEFRQFFGLKNLSPWASQYVEQMFETFDFNKDGYIDFMEYVAALSLVLKGKVEQKLRWYFKLYDVDGNGCIDRDELLTIIRAIRAINPCSDSTMTAEEFTDTVFSKIDVNGDGELSLEEFMEGVQKDQMLLDTLTRSLDLTRIVRRLQNGEQDEEGASGRETEAAEADG
activation of recombinant human RetGC1 by Mg2+GCAP1 in the absence of Ca2+, dose dependence (Fig. 3A inset); EC50 [2]: ~1500 nM

B3: PIGCY-GFP (protein inhibitor of retinal guanylyl cyclase, M26R/G86R/L176F GCAP1, tagged with GFP at the C-terminus) (designed binder)
chain: MGNIMDGKSVEELSSTECHQWYKKFRTECPSGQLTLYEFRQFFGLKNLSPWASQYVEQMFETFDFNKDGYIDFMEYVAALSLVLKRKVEQKLRWYFKLYDVDGNGCIDRDELLTIIRAIRAINPCSDSTMTAEEFTDTVFSKIDVNGDGELSLEEFMEGVQKDQMLLDTLTRSLDFTRIVRRLQNGEQDEEGASGRETEAAEADG
inhibition by PIGCY of RetGC1 preactivated by 1 μM bovine recombinant GCAP1 (blocked pair: RetGC1:bovine GCAP1), 2 mM EGTA, 10 mM MgCl2; IC50 [2]: 51 nM | inhibition by PIGCY of RetGC1 preactivated by 1 μM human recombinant GCAP1 (blocked pair: RetGC1:human GCAP1), 2 mM EGTA, 10 mM MgCl2; IC50 [2]: 75 nM | inhibition by PIGCY of RetGC1 preactivated by 1 μM mouse recombinant GCAP1 (blocked pair: RetGC1:mouse GCAP1), 2 mM EGTA, 10 mM MgCl2; IC50 [2]: 91 nM | inhibition of the activity of recombinant RetGC1 in HEK293 membranes reconstituted with 1 μM GCAP1 (blocked pair: RetGC1:GCAP1), 2 mM EGTA, 10 mM MgCl2; IC50 [2]: 52 nM | reduction of Vmax of recombinant human RetGC1 in HEK293 membranes reconstituted with 2 μM wildtype GCAP1 by 0.35 μM PIGCY (blocked pair: RetGC1:GCAP1) [2]: > 3 fold | total RetGC activity in the rod outer segment fraction isolated from wildtype mouse retinas with 3 μM PIGCY (32 without PIGCY) (nmol cGMP/min/mg rhodopsin) [3]: 11
